According to patent US20220048967A1 (published 2022):
Numbered stars: 1 amine (or outer) side, 2 acyl side, 3 side chain; on linkers, the order of the positions; unused ones are H or OH. Square brackets hold non-standard residues; d marks the D form. Side chains are listed from the residue outwards. Ends that are not written are not given here. * marks the point of attachment. C20 diacid = O=C(O)CCCCCCCCCCCCCCCCCCC(=O)*; γGlu = O=C(O)[C@H](CCC(=O)[*:2])N[*:1]; AEEA = NCCOCCOCC(=O)O; Aib = CC(C)(N)C(=O)O

T1: human GIP receptor (human, UniProt P48546 22-466)
T1 sequence (looked up): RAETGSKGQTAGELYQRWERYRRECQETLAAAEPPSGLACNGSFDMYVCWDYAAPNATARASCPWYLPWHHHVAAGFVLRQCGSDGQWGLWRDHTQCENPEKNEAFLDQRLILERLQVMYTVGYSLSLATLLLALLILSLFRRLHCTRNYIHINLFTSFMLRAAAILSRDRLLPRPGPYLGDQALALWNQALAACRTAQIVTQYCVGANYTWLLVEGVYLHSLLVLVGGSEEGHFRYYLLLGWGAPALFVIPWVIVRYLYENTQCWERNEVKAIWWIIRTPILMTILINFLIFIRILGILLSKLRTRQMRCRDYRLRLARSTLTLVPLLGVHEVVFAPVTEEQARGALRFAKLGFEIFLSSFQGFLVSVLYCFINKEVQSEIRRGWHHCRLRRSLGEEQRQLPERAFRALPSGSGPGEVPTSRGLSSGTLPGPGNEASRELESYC

B1: Example 42 (peptide)
peptide: Y[Aib]EGTFTSDYSILLDKIAQ[Aib]AFIEYLIEGGPSK([AEEA-AEEA-γGlu-C20 diacid])GAPPPS-NH2
modifications: N-terminus assumed
SMILES: CC[C@H](C)[C@H](NC(=O)[C@H](CCCCN)NC(=O)[C@H](CC(=O)O)NC(=O)[C@H](CC(C)C)NC(=O)[C@H](CC(C)C)NC(=O)[C@@H](NC(=O)[C@H](CO)NC(=O)[C@H](Cc1ccc(O)cc1)NC(=O)[C@H](CC(=O)O)NC(=O)[C@H](CO)NC(=O)[C@@H](NC(=O)[C@H](Cc1ccccc1)NC(=O)[C@@H](NC(=O)CNC(=O)[C@H](CCC(=O)O)NC(=O)C(C)(C)NC(=O)[C@@H](N)Cc1ccc(O)cc1)[C@@H](C)O)[C@@H](C)O)[C@@H](C)CC)C(=O)N[C@@H](C)C(=O)N[C@@H](CCC(N)=O)C(=O)NC(C)(C)C(=O)N[C@@H](C)C(=O)N[C@@H](Cc1ccccc1)C(=O)N[C@H](C(=O)N[C@@H](CCC(=O)O)C(=O)N[C@@H](Cc1ccc(O)cc1)C(=O)N[C@@H](CC(C)C)C(=O)N[C@H](C(=O)N[C@@H](CCC(=O)O)C(=O)NCC(=O)NCC(=O)N1CCC[C@H]1C(=O)N[C@@H](CO)C(=O)N[C@@H](CCCCNC(=O)COCCOCCNC(=O)COCCOCCNC(=O)CC[C@H](NC(=O)CCCCCCCCCCCCCCCCCCC(=O)O)C(=O)O)C(=O)NCC(=O)N[C@@H](C)C(=O)N1CCC[C@H]1C(=O)N1CCC[C@H]1C(=O)N1CCC[C@H]1C(=O)N[C@@H](CO)C(N)=O)[C@@H](C)CC)[C@@H](C)CC
B2: Example 39 (peptide)
peptide: Y[Aib]EGTFTSDYSILLDKIAQ[Aib]AFIEYLIEGK([AEEA-AEEA-γGlu-C20 diacid])PSSGAPPPS-NH2
modifications: N-terminus assumed
SMILES: CC[C@H](C)[C@H](NC(=O)[C@H](CCCCN)NC(=O)[C@H](CC(=O)O)NC(=O)[C@H](CC(C)C)NC(=O)[C@H](CC(C)C)NC(=O)[C@@H](NC(=O)[C@H](CO)NC(=O)[C@H](Cc1ccc(O)cc1)NC(=O)[C@H](CC(=O)O)NC(=O)[C@H](CO)NC(=O)[C@@H](NC(=O)[C@H](Cc1ccccc1)NC(=O)[C@@H](NC(=O)CNC(=O)[C@H](CCC(=O)O)NC(=O)C(C)(C)NC(=O)[C@@H](N)Cc1ccc(O)cc1)[C@@H](C)O)[C@@H](C)O)[C@@H](C)CC)C(=O)N[C@@H](C)C(=O)N[C@@H](CCC(N)=O)C(=O)NC(C)(C)C(=O)N[C@@H](C)C(=O)N[C@@H](Cc1ccccc1)C(=O)N[C@H](C(=O)N[C@@H](CCC(=O)O)C(=O)N[C@@H](Cc1ccc(O)cc1)C(=O)N[C@@H](CC(C)C)C(=O)N[C@H](C(=O)N[C@@H](CCC(=O)O)C(=O)NCC(=O)N[C@@H](CCCCNC(=O)COCCOCCNC(=O)COCCOCCNC(=O)CC[C@H](NC(=O)CCCCCCCCCCCCCCCCCCC(=O)O)C(=O)O)C(=O)N1CCC[C@H]1C(=O)N[C@@H](CO)C(=O)N[C@@H](CO)C(=O)NCC(=O)N[C@@H](C)C(=O)N1CCC[C@H]1C(=O)N1CCC[C@H]1C(=O)N1CCC[C@H]1C(=O)N[C@@H](CO)C(N)=O)[C@@H](C)CC)[C@@H](C)CC
B3: Example 41 (peptide)
peptide: Y[Aib]EGTFTSDYSILLDKIAQ[Aib]AFIEYLIEGGPK([AEEA-AEEA-γGlu-C20 diacid])SGAPPPS-NH2
modifications: N-terminus assumed
SMILES: CC[C@H](C)[C@H](NC(=O)[C@H](CCCCN)NC(=O)[C@H](CC(=O)O)NC(=O)[C@H](CC(C)C)NC(=O)[C@H](CC(C)C)NC(=O)[C@@H](NC(=O)[C@H](CO)NC(=O)[C@H](Cc1ccc(O)cc1)NC(=O)[C@H](CC(=O)O)NC(=O)[C@H](CO)NC(=O)[C@@H](NC(=O)[C@H](Cc1ccccc1)NC(=O)[C@@H](NC(=O)CNC(=O)[C@H](CCC(=O)O)NC(=O)C(C)(C)NC(=O)[C@@H](N)Cc1ccc(O)cc1)[C@@H](C)O)[C@@H](C)O)[C@@H](C)CC)C(=O)N[C@@H](C)C(=O)N[C@@H](CCC(N)=O)C(=O)NC(C)(C)C(=O)N[C@@H](C)C(=O)N[C@@H](Cc1ccccc1)C(=O)N[C@H](C(=O)N[C@@H](CCC(=O)O)C(=O)N[C@@H](Cc1ccc(O)cc1)C(=O)N[C@@H](CC(C)C)C(=O)N[C@H](C(=O)N[C@@H](CCC(=O)O)C(=O)NCC(=O)NCC(=O)N1CCC[C@H]1C(=O)N[C@@H](CCCCNC(=O)COCCOCCNC(=O)COCCOCCNC(=O)CC[C@H](NC(=O)CCCCCCCCCCCCCCCCCCC(=O)O)C(=O)O)C(=O)N[C@@H](CO)C(=O)NCC(=O)N[C@@H](C)C(=O)N1CCC[C@H]1C(=O)N1CCC[C@H]1C(=O)N1CCC[C@H]1C(=O)N[C@@H](CO)C(N)=O)[C@@H](C)CC)[C@@H](C)CC
B4: Example 43 (peptide)
peptide: Y[Aib]EGTFTSDYSILLDKIAQ[Aib]AFIEYLIEGGPSSK([AEEA-AEEA-γGlu-C20 diacid])APPPS-NH2
modifications: N-terminus assumed
SMILES: CC[C@H](C)[C@H](NC(=O)[C@H](CCCCN)NC(=O)[C@H](CC(=O)O)NC(=O)[C@H](CC(C)C)NC(=O)[C@H](CC(C)C)NC(=O)[C@@H](NC(=O)[C@H](CO)NC(=O)[C@H](Cc1ccc(O)cc1)NC(=O)[C@H](CC(=O)O)NC(=O)[C@H](CO)NC(=O)[C@@H](NC(=O)[C@H](Cc1ccccc1)NC(=O)[C@@H](NC(=O)CNC(=O)[C@H](CCC(=O)O)NC(=O)C(C)(C)NC(=O)[C@@H](N)Cc1ccc(O)cc1)[C@@H](C)O)[C@@H](C)O)[C@@H](C)CC)C(=O)N[C@@H](C)C(=O)N[C@@H](CCC(N)=O)C(=O)NC(C)(C)C(=O)N[C@@H](C)C(=O)N[C@@H](Cc1ccccc1)C(=O)N[C@H](C(=O)N[C@@H](CCC(=O)O)C(=O)N[C@@H](Cc1ccc(O)cc1)C(=O)N[C@@H](CC(C)C)C(=O)N[C@H](C(=O)N[C@@H](CCC(=O)O)C(=O)NCC(=O)NCC(=O)N1CCC[C@H]1C(=O)N[C@@H](CO)C(=O)N[C@@H](CO)C(=O)N[C@@H](CCCCNC(=O)COCCOCCNC(=O)COCCOCCNC(=O)CC[C@H](NC(=O)CCCCCCCCCCCCCCCCCCC(=O)O)C(=O)O)C(=O)N[C@@H](C)C(=O)N1CCC[C@H]1C(=O)N1CCC[C@H]1C(=O)N1CCC[C@H]1C(=O)N[C@@H](CO)C(N)=O)[C@@H](C)CC)[C@@H](C)CC
B5: Example 44 (peptide)
peptide: Y[Aib]EGTFTSDYSILLDKIAQ[Aib]AFIEYLIEGGPSSGK([AEEA-AEEA-γGlu-C20 diacid])PPPS-NH2
modifications: N-terminus assumed
SMILES: CC[C@H](C)[C@H](NC(=O)[C@H](CCCCN)NC(=O)[C@H](CC(=O)O)NC(=O)[C@H](CC(C)C)NC(=O)[C@H](CC(C)C)NC(=O)[C@@H](NC(=O)[C@H](CO)NC(=O)[C@H](Cc1ccc(O)cc1)NC(=O)[C@H](CC(=O)O)NC(=O)[C@H](CO)NC(=O)[C@@H](NC(=O)[C@H](Cc1ccccc1)NC(=O)[C@@H](NC(=O)CNC(=O)[C@H](CCC(=O)O)NC(=O)C(C)(C)NC(=O)[C@@H](N)Cc1ccc(O)cc1)[C@@H](C)O)[C@@H](C)O)[C@@H](C)CC)C(=O)N[C@@H](C)C(=O)N[C@@H](CCC(N)=O)C(=O)NC(C)(C)C(=O)N[C@@H](C)C(=O)N[C@@H](Cc1ccccc1)C(=O)N[C@H](C(=O)N[C@@H](CCC(=O)O)C(=O)N[C@@H](Cc1ccc(O)cc1)C(=O)N[C@@H](CC(C)C)C(=O)N[C@H](C(=O)N[C@@H](CCC(=O)O)C(=O)NCC(=O)NCC(=O)N1CCC[C@H]1C(=O)N[C@@H](CO)C(=O)N[C@@H](CO)C(=O)NCC(=O)N[C@@H](CCCCNC(=O)COCCOCCNC(=O)COCCOCCNC(=O)CC[C@H](NC(=O)CCCCCCCCCCCCCCCCCCC(=O)O)C(=O)O)C(=O)N1CCC[C@H]1C(=O)N1CCC[C@H]1C(=O)N1CCC[C@H]1C(=O)N[C@@H](CO)C(N)=O)[C@@H](C)CC)[C@@H](C)CC
B6: Example 40 (peptide)
peptide: Y[Aib]EGTFTSDYSILLDKIAQ[Aib]AFIEYLIEGGK([AEEA-AEEA-γGlu-C20 diacid])SSGAPPPS-NH2
modifications: N-terminus assumed
SMILES: CC[C@H](C)[C@H](NC(=O)[C@H](CCCCN)NC(=O)[C@H](CC(=O)O)NC(=O)[C@H](CC(C)C)NC(=O)[C@H](CC(C)C)NC(=O)[C@@H](NC(=O)[C@H](CO)NC(=O)[C@H](Cc1ccc(O)cc1)NC(=O)[C@H](CC(=O)O)NC(=O)[C@H](CO)NC(=O)[C@@H](NC(=O)[C@H](Cc1ccccc1)NC(=O)[C@@H](NC(=O)CNC(=O)[C@H](CCC(=O)O)NC(=O)C(C)(C)NC(=O)[C@@H](N)Cc1ccc(O)cc1)[C@@H](C)O)[C@@H](C)O)[C@@H](C)CC)C(=O)N[C@@H](C)C(=O)N[C@@H](CCC(N)=O)C(=O)NC(C)(C)C(=O)N[C@@H](C)C(=O)N[C@@H](Cc1ccccc1)C(=O)N[C@H](C(=O)N[C@@H](CCC(=O)O)C(=O)N[C@@H](Cc1ccc(O)cc1)C(=O)N[C@@H](CC(C)C)C(=O)N[C@H](C(=O)N[C@@H](CCC(=O)O)C(=O)NCC(=O)NCC(=O)N[C@@H](CCCCNC(=O)COCCOCCNC(=O)COCCOCCNC(=O)CC[C@H](NC(=O)CCCCCCCCCCCCCCCCCCC(=O)O)C(=O)O)C(=O)N[C@@H](CO)C(=O)N[C@@H](CO)C(=O)NCC(=O)N[C@@H](C)C(=O)N1CCC[C@H]1C(=O)N1CCC[C@H]1C(=O)N1CCC[C@H]1C(=O)N[C@@H](CO)C(N)=O)[C@@H](C)CC)[C@@H](C)CC

What follows are binders tested against T1, human GIP receptor (assay: cell-based or functional assay).

Question: How did the “hGIPR cAMP EC50 ratio” value turn out when B1 was run?
Answer: 0.897

Question: What about the “hGIPR cAMP Rel EC50” value of the same binder?
Answer: 0.161 nM

Question: B2 was tested. Which “hGIPR cAMP EC50 ratio” value did it give?
Answer: 1.07

Question: What about the “hGIPR cAMP Rel EC50” value of the same binder?
Answer: 0.133 nM

Question: What does the source list for B3?
Answer: hGIPR cAMP EC50 ratio: 0.637; hGIPR cAMP Rel EC50: 0.229 nM

Question: What does the source list for B4?
Answer: hGIPR cAMP EC50 ratio: 1.28; hGIPR cAMP Rel EC50: 0.112 nM

Question: Which results are given for B5?
Answer: hGIPR cAMP EC50 ratio: 1.11; hGIPR cAMP Rel EC50: 0.128 nM

Question: With B6 as the binder, how does the “hGIPR cAMP EC50 ratio” value read?
Answer: 1.06

Question: What about the “hGIPR cAMP Rel EC50” value of the same binder?
Answer: 0.136 nM

The binders below were run against human GLP-1 receptor (human, UniProt P43220 24-463) (assay: cell-based or functional assay).

Question: Which results are given for B1?
Answer: hGLP1R cAMP EC50 ratio: 0.0471; hGLP1R cAMP Rel EC50: 1.45 nM

Question: B2 was tested. Which “hGLP1R cAMP EC50 ratio” value did it give?
Answer: 0.0323

Question: What about the “hGLP1R cAMP Rel EC50” value of the same binder?
Answer: 1.92 nM

Question: Which “hGLP1R cAMP EC50 ratio” value does the source give for B3 here?
Answer: 0.0637

Question: And the “hGLP1R cAMP Rel EC50” value?
Answer: 0.96 nM

Question: How did the “hGLP1R cAMP EC50 ratio” value turn out when B4 was run?
Answer: 0.0777

Question: What about the “hGLP1R cAMP Rel EC50” value of the same binder?
Answer: 0.862 nM

Question: For B5, which “hGLP1R cAMP EC50 ratio” value is on record?
Answer: 0.0918

Question: What about the “hGLP1R cAMP Rel EC50” value of the same binder?
Answer: 0.752 nM

Question: B6 was tested. Which “hGLP1R cAMP EC50 ratio” value did it give?
Answer: 0.0801

Question: What about the “hGLP1R cAMP Rel EC50” value of the same binder?
Answer: 0.746 nM
